From patent publication US20260248947A1, “Methods of Treating Cancer Using Anti-HER2 Antibody-Drug Conjugates and HER2 Kinase Inhibitors” (Seagen Inc., priority 2023, published 2026)

Legend:
[1] = biological target: HER2 (Homo sapiens, UniProt P04626); experiment: Internalization of anti-HER2 ADCs DV, T-DM1 and T-DXd; type: cell-based; design: endogenous in cells; host or cells: SK-BR-3, BT-474, HCC-202, EFM-192C, BT-483, CAMA-1, NCI-N87, OE19, RERF-GC-1B; conditions: results considered preliminary
Procedure: The internalization experiments were conducted by detecting an antibody-bound pH sensitive probe using automated time-lapse microscopy. Briefly, breast cancer cell lines SK-BR-3, BT-474, HCC-202, EFM-192C, BT-483, and CAMA-1 and gastric cancer cell lines NCI-N87, OE19, and RERF-GC-1B were seeded in 96-well flat clear-bottom black tissue culture-treated microplates (Corning, cat #3603). Cells were plated at 1.5×10^4-2.5×10^4 cells/200 μL/well in growth medium and allowed to adhere overnight at 37° C. Disitamab, trastuzumab, and isotype control antibody (human IgG) were labeled with IncuCyte Fabfluor-pH Red Antibody Labeling Reagent (Essen Bioscience, cat #4722) according to the manufacturer's protocol. Volumes of the test antibodies, Fabfluor reagent and medium required were calculated at 2× the final assay concentration, and the Fabfluor reagent was added at a molar ratio of 1:3 to the antibody. Fabfluor dye fluoresces only upon exposure to an acidified compartment, namely endocytic vesicles and lysosomes, signifying internalization and intracellular processing of the ADC. Antibody and Fabfluor were mixed gently and incubated at 37° C. for 15 minutes. Media containing Fabfluor-labeled disitamab or trastuzumab ([…] final concentration) was added to cells. The plates were arranged on microplate trays in the IncuCyte SX3 system (Essen Bioscience), and scans were acquired using the Standard protocol. Phase data and red channel data (acquisition time set to 400 ms) were collected, with 4 images per well every 30 minutes for the first 6 hours and every 2 hours after that for up to 40 hours with the objective set at 10×. Quantification of fluorescence signal intensity was performed using the IncuCyte software analysis tool.
(§1) Internalization of anti-HER2 ADCs DV, T-DM1, and T-DXd (two HER2-targeting ADCs with trastuzumab as a backbone) was also tested in breast cancer cell lines SK-BR-3, HCC-202, and BT-483.

[2] = tested on: PDO SG-111-444-6273 (HER2 low); experiment: Patient-derived organoid cytotoxicity, caspase-3/7 fluorescence imaging; type: cell-based; conditions: DV 27-6,700 ng/mL, T-DXd 41-10,000 ng/mL
Procedure: (§2) DV and T-DXd were also tested against a panel of PDOs: HER2 low SG-111-444-6273, HER2 low SG-634-395-2953, and HER2 moderate SG-553-819-8499. DV was titrated across a range of 27-6,700 ng/mL, while T-DXd was titrated across a range of 41-10,000 ng/mL. Drug and media was exchanged every four days. Analysis was conducted with fluorescence imaging: PDOs were identified from clusters of Hoechst positive cells, and caspase-3/7 was used for the identification of apoptotic cells. Mean caspase-3/7 intensity was measured per well and normalized to cell count.

[3] = tested on: PDO SG-553-819-8499 (HER2 moderate); experiment: as above; type: cell-based; conditions: DV 27-6,700 ng/mL, T-DXd 41-10,000 ng/mL
Procedure: as §2

[4] = tested on: PDO SG-634-395-2953 (HER2 low); experiment: as above; type: cell-based; conditions: DV 27-6,700 ng/mL, T-DXd 41-10,000 ng/mL
Procedure: as §2

[5] = tested on: gastric cancer PDX models; experiment: Tumor volume in gastric cancer PDX models with variable HER2 expression; type: in vivo, Mice; conditions: in a majority of the six PDX models; DV 2 mg/kg intravenous single dose
Source text: FIGS. […] show the effects of combining DV and tucatinib vs. DV as a single agent in gastric cancer patient-derived xenograft (PDX) models with varying HER2 expression levels: GA13745 (IHC 1+; FIGS. 12A, 12B), GA6821 (IHC 1+; FIGS. 12C, 12D), CTG-0148 (IHC 1+; FIGS. 12E, 12F), CTG-3036 (IHC 2+; FIGS. 12G, 12H), CTG-3033 (IHC 3+; FIGS. 12I, 12J), and GA3102 (IHC 3+; FIGS. 12K, 12L). Treatment with T-DXd, a HER2-directed ADC, was also included in the study. Tumor volume data shown as mean±SEM. For each model, tumor growth was evaluated using a normalized area under the curve (AUC) metric (see, Guo, S. et al. (2019) BMC Cancer 19, 718) (FIGS. 12A, 12C, 12E, 12G, 12I, 12K). AUC was calculated for each model for the duration of the experiment, then compared by one-way ANOVA followed by Tukey's post-hoc test. The box-and-whisker plots represent the median and range for each treatment group (FIGS. 12B, 12D, 12F, 12H, 12J, 12L). […]
DV and tucatinib were tested as monotherapies and in combination in PDX models with varying HER2 expression levels. […] Mice (n=10/group) were treated with tucatinib (50 mg/kg oral, twice daily), DV (2 mg/kg, intravenous, single dose), a combination of tucatinib and DV, or T-DXd (2 mg/kg, intravenous, single dose), and tumor volume was measured over time.

[6] = tested on: panel of breast cancer cell lines spanning a range of HER2 expression; experiment: 96-hour CellTiterGlo cytotoxicity assay of DV, T-DM1 and T-DXd; type: cell-based
Procedure: The following cell lines were cultured in the vendor-recommended conditions: breast cancer cell lines SK-BR-3, BT-474, UACC-893, HCC-202, JIMT-1, and BT-483. Cytotoxicity assays were performed using CellTiter-Glo (CTG) Luminescent Cell Viability assay (Promega Corporation) as per the manufacturer's protocol. Cells were seeded in 96-well plates and incubated overnight as previously described (1). […] Cells were then incubated at 37° C. in 5% CO2, and cell viability was measured at 96 hours after dosing.
as §1

disitamab vedotin [DV]
internalization compared to T-DM1 and T-DXd ([1]; BT-483): enhanced internalization | internalization compared to T-DM1 and T-DXd ([1]; HCC-202): enhanced internalization | internalization compared to T-DM1 and T-DXd ([1]; SK-BR-3): enhanced internalization | single-agent cytotoxic activity as compared to T-DXd (caspase-3/7 intensity) [2]: more potent single-agent cytotoxic activity | single-agent cytotoxic activity as compared to T-DXd (caspase-3/7 intensity) [3]: more potent single-agent cytotoxic activity | single-agent cytotoxic activity as compared to T-DXd (caspase-3/7 intensity) [4]: more potent single-agent cytotoxic activity | anti-tumor activity of DV monotherapy [5]: anti-tumor activity | IC50 compared with the IC50 for T-DM1 and T-DXd ([6]; for each cell line of the panel): lower | in vitro cytotoxic activity against the panel of breast cancer cell lines ([6]; variable HER2 expression, including HER2-low range, 0.01-10,000 ng/mL): in vitro cytotoxic activity
